B1: Protein BCL9 homolog (Drosophila melanogaster (Fruit fly)), Q961D9 (parent)
chain: MLSTTMPRSPTQQQPQPNSDASSTSASGSNPGAAIGNGDSAASRSSPKTLNSEPFSTLSPDQIKLTPEEGTEKSGLSTSDKAATGGAPGSGNNLPEGQTMLRQNSTSTINSCLVASPQNSSEHSNSSNVSATVGLTQMVDCDEQSKKNKCSVKDEEAEISSNKAKGQAAGGGCETGSTSSLTVKEEPTDVLGSLVNMKKEERENHSPTMSPVGFGSIGNAQDNSATPVKIERISNDSTTEKKGSSLTMNNDEMSMEGCNQLNPDFINESLNNPAISSILVSGVGPIPGIGVGAGTGNLLTANANGISSGSSNCLDYMQQQNHIFVFSTQLANKGAESVLSGQFQTIIAYHCTQPATKSFLEDFFMKNPLKINKLQRHNSVGMPWIGMGQVGLTPPNPVAKITQQQPHTKTVGLLKPQFNQHENSKRSTVSAPSNSFVDQSDPMGNETELMCWEGGSSNTSRSGQNSRNHVDSISTSSESQAIKILEAAGVDLGQVTKGSDPGLTTENNIVSLQGVKVPDENLTPQQRQHREEQLAKIKKMNQFLFPENENSVGANVSSQITKIPGDLMMGMSGGGGGSIINPTMRQLHMPGNAKSELLSATSSGLSEDVMHPGDVISDMGAVIGCNNNQKTSVQCGSGVGVVTGTTAAGVNVNMHCSSSGAPNGNMMGSSTDMLASFGNTSCNVIGTAPDMSKEVLNQDSRTHSHQGGVAQMEWSKIQHQFFEERLKGGKPRQVTGTVVPQQQTPSGSGGNSLNNQVRPLQGPPPPYHSIQRSASVPIATQSPNPSSPNNLSLPSPRTTAAVMGLPTNSPSMDGTGSLSGSVPQANTSTVQAGTTTVLSANKNCFQADTPSPSNQNRSRNTGSSSVLTHNLSSNPSTPLSHLSPKEFESFGQSSAGDNMKSRRPSPQGQRSPVNSLIEANKDVRFAASSPGFNPHPHMQSNSNSALNAYKMGSTNIQMERQASAQGGSVQFSRRSDNIPLNPNSGNRPPPNKMTQNFDPISSLAQMSQQLTSCVSSMGSPAGTGGMTMMGGPGPSDINIEHGIISGLDGSGIDTINQNNCHSMNVVMNSMGPRMLNPKMCVAGGPNGPPGFNPNSPNGGLRENSIGSGCGSANSSNFQGVVPPGARMMGRMPVNFGSNFNPNIQVKASTPNTIQYMPVRAQNANNNNNNGANNVRMPPSLEFLQRYANPQMGAVGNGSPICPPSASDGTPGMPGLMAGPGAGGMLMNSSGEQHQNKITNNPGASNGINFFQNCNQMSIVDEEGGLPGHDGSMNIGQPSMIRGMRPHAMRPNVMGARMPPVNRQIQFAQSSDGIDCVGDPSSFFTNASCNSAGPHMFGSAQQANQPKTQHIKNIPSGMCQNQSGLAVAQGQIQLHGQGHAQGQSLIGPTNNNLMSTAGSVSATNGVSGINFVGPSSTDLKYAQQYHSFQQQLYATNTRSQQQQHMHQQHQSNMITMPPNLSPNPTFFVNK
partner: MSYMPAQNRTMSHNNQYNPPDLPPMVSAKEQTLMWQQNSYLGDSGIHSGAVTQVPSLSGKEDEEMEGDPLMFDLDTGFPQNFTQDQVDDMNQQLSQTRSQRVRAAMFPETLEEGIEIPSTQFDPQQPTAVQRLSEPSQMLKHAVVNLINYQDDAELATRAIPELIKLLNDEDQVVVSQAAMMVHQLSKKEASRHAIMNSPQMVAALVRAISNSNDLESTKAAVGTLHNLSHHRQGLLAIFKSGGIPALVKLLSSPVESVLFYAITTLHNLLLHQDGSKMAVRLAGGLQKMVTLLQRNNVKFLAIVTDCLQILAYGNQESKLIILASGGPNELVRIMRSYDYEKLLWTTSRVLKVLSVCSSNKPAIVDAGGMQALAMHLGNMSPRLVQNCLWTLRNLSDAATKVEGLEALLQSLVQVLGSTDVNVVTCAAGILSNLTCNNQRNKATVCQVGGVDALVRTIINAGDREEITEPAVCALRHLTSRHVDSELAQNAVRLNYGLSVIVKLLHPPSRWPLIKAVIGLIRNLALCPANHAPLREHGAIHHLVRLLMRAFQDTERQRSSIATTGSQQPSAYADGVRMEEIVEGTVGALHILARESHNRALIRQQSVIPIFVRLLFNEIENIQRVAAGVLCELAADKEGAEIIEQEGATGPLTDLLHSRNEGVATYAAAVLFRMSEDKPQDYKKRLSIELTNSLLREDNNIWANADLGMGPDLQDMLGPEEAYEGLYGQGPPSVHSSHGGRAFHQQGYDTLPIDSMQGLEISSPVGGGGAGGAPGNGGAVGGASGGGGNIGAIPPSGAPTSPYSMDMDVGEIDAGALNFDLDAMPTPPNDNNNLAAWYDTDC

Here are results for one variant from IntAct's records for PubMed 11955446.

The variants in the assay derive from B1. The note with it: with arm_drome arm.
As for L534F, the “effect of a mutation on the interaction” value is reported as “decreasing interaction”.
